Reference: patent US5639663, “Bifunctional genetic markers” (National Research Council of Canada, dated 1997)

Molecular target: beta-glucuronidase (GUS), unfused, expressed from pGK1 (E. coli, UniProt P05804)
Experiment: molecular sieve chromatography (Superose 6) of E. coli extract co-expressing unfused GUS and NPT-II; enzyme activities of the fractions

B1: neomycin phosphotransferase-II (NPT-II), unfused, expressed from pGS39 (enzyme)
chain: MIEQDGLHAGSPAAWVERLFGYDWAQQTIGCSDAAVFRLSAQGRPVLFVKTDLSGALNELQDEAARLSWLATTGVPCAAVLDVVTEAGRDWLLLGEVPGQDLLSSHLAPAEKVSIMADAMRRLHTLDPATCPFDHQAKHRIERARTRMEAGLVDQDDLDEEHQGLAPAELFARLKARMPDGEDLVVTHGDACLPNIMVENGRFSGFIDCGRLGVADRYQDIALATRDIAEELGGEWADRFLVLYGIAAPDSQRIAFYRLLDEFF
Does B1 bind?
Result: no binding
